In article PMC11413682, “SARS-CoV-2 ORF10 hijacking ubiquitination machinery reveals potential unique drug targeting sites” (Acta Pharmaceutica Sinica. B, 2024):

Target: T1, CUL2^ZYG11B (residues 490–728) (human, UniProt Q9C0D3 490-728)
T1 construct: human ZYG11B, substrate receptor of the cullin-2 RING E3 ligase; ARM3–ARM8 repeats, residues 490–728; also called CUL2^ZYG11B(490–728); ARM3–ARM8; source: E. coli, purified (Ni-NTA, TEV cleavage, HiTrap Q HP, gel filtration); not shown: His6, N-terminal, cleaved; SUMO, N-terminal, cleaved
T1 sequence (Q9C0D3 490-728): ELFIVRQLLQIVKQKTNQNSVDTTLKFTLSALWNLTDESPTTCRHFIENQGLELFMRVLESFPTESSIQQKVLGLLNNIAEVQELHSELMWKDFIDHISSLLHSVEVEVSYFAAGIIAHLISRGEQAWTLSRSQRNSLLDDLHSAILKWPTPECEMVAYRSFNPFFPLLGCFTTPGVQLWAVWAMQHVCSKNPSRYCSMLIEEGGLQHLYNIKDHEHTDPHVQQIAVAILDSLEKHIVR
Test: ITC; MicroCal iTC200; peptides (0.5–1 mmol/L) in the syringe, CUL2^ZYG11B(490–728) (0.03 mmol/L) in the cell; 18 injections of 2 μL; repeated 3 times
Conditions: both partners purified

B1: SARS-CoV-2 ORF10 N5 peptide (peptide)
peptide: GYINV
notes: first five residues of the SARS-CoV-2 ORF10 N-terminal extension; also called five-residue peptide; source: synthetic peptide
Kd: 2.94 µM
